# In paper PMC3595137 (Nature communications, 2013):
# Substitutions are numbered along the chain they refer to.
# T1: HA-α-SNAP M105I (hyh mutant) (human, UniProt P54920 1-295, M105I)
# T1 sequence: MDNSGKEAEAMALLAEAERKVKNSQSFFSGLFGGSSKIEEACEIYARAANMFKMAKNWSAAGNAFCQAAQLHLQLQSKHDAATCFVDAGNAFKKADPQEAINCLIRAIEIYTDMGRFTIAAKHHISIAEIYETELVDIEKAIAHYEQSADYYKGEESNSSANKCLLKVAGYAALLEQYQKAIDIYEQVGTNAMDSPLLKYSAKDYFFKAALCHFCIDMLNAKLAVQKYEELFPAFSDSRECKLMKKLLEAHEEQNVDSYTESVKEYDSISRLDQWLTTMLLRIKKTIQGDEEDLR
# B1: purified recombinant α-SNAP (His-tagged, wild type) (natural protein)
# chain: T1 sequence with I105M
# B2: FLAG-AMPKα2 (natural protein)
# chain: MAEKQKHDGRVKIGHYVLGDTLGVGTFGKVKIGEHQLTGHKVAVKILNRQKIRSLDVVGKIKREIQNLKLFRHPHIIKLYQVISTPTDFFMVMEYVSGGELFDYICKHGRVEEMEARRLFQQILSAVDYCHRHMVVHRDLKPENVLLDAHMNAKIADFGLSNMMSDGEFLRTSCGSPNYAAPEVISGRLYAGPEVDIWSCGVILYALLCGTLPFDDEHVPTLFKKIRGGVFYIPEYLNRSVATLLMHMLQVDPLKRATIKDIREHEWFKQDLPSYLFPEDPSYDANVIDDEAVKEVCEKFECTESEVMNSLYSGDPQDQLAVAYHLIIDNRRIMNQASEFYLASSPPSGSFMDDSAMHIPPGLKPHPERMPPLIADSPKARCPLDALNTTKPKSLAVKKAKWHLGIRSQSKPYDIMAEVYRAMKQLDFEWKVVNAYHLRVRRKNPVTGNYVKMSLQLYLVDNRSYLLDFKSIDDEVVEQRSGSSTPQRSCSAAGLHRPRSSFDSTTAESHSLSGSLTGSLTGSTLSSVSPRLGSHTMDFFEMCASLITTLAR
# Legend:
# [1] = target: FLAG-tagged AMPK-γ1 (wild type) (UniProt P54619 1-331); experiment: pull-down
# [2] = target: T1, HA-α-SNAP M105I (hyh mutant); experiment: co-IP
# Chain of FLAG-tagged AMPK-γ1 (wild type) (P54619 whole entry): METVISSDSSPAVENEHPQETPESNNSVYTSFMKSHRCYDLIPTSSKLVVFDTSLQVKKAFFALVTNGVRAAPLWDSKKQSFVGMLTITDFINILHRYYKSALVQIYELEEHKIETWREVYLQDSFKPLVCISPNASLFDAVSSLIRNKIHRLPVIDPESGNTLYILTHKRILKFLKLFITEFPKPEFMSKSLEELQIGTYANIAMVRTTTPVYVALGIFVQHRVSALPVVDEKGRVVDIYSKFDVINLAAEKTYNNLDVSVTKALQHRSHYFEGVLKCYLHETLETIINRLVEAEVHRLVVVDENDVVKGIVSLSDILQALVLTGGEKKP
binder,measurement,setting,value
B1,fold increase in binding with ATP against no nucleotide,[1],2 fold
B2,fold increase in co-immunoprecipitation against WT α-SNAP,[2],~2 fold
